Reference: article PMC5838229

Target: Flag-DNAJC5 (secreted) (UniProt Q9H3Z4)
Test: co-IP; conditioned medium of cells expressing Flag-DNAJC5 and HA-GFP1-10; Flag beads against control Sepharose beads; precipitated and unbound fractions analysed by immunoblotting

Sequence of UniProt Q9H3Z4 (Q9H3Z4 whole entry): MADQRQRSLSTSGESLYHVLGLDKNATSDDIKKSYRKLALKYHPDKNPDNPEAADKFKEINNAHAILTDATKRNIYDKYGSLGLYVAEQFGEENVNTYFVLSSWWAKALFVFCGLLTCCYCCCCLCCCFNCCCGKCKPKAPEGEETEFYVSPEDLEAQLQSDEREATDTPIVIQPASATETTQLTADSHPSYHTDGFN

- percent co-depleted with Flag-DNAJC5: > 60%
Substance: HA-GFP1-10 (secreted) (domain or fragment)
